In one test the target is T1, human TNF (human, UniProt P01375 77-233).
T1 construct: also called huTNF
In words: binding assay of FIG. 12(a) Panel B.

For test [1], the target named is T2, canine tumour necrosis factor alpha (canine, UniProt P51742 77-233).
T2 construct: Coated at 5 ug/ml in the ELISA; used at 1 ng/mL in the reporter assay; also called canine TNF; canine TNFa
In words: ELISA, canine TNFa coated, antibody 5 ug/ml to 0.05 ug/ml. The protocol:
The resultant supernatants were purified on Protein A, analysed by SDS-PAGE (FIG. 10A) and tested for binding to canine TNFa (coated at 5 ug/ml; R&D systems) at the indicated concentrations of antibody (ug/ml) by ELISA and detected using anti-canine polyclonal antibody-horseradish peroxidase conjugate (Sigma A9042) (FIG. 10B). The negative control was the detection polyclonal on coated antigen alone.
(ELISA stands for enzyme-linked immunosorbent assay.)

The target in test [2] is T2, canine tumour necrosis factor alpha. In words: binding assay of FIG. 12(a) Panel C, compared with the D2E7 based MAbs.

T2 sequence (P51742 77-233 limits assumed): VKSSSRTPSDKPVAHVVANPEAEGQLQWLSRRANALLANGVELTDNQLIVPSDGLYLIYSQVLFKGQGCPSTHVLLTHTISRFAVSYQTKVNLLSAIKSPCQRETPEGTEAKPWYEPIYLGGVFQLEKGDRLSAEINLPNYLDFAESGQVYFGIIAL
T1 sequence (P01375 77-233 limits assumed): as the sequence (P51742 77-233 limits assumed) above, with K2R, E21Q, S30N, T44R, I49V, D53E, F83I, T109A, L138R, N140D counted along it

B1: caninised anti-TNF monoclonal antibody (SEQ ID NO:3 light chain plus SEQ ID NO:5 heavy chain), based on D2E7 (antibody, V domains shown)
VH: not shown
VL: DIVMTQSPASLSLSQEEKVTITCRASQGIRNYLAWYQQKPGQAPKLLIYAASTLQSGVPSRFSGSGSGTDFTLTISSLEPEDVAVYYCQRYNRAPYTFGQGTKVEIKR
notes: canine IgG-B heavy chain, kappa light chain; also called ca-HCB+ca-kLC; caninised (Ca) D2E7 based MAb
For the molecule B1, the binding result (with human TNF; in test [1]) was “binds” in each case.

B2: caninised anti-huTNF MAb 148 (SEQ ID NO:18 plus SEQ ID NO:19) (antibody, V domains shown)
VH: EVQLVESGGGVVQPGGSLRLSCAASGFIFSSYAMRWVRQAPGKGLEWVAFMSYDGSNKKYADSVKGRFTISRDNSKNTLYLQMNSLRAEDTAVYYCARDRGIAAGGNYYYYGMDVWGQGTSVTVSS
VL: EIVMTQSPASLSLSPGEKATISCRASQSVYSYLAWYQQKPGQAPRLLIYDASNRATGVPSRFSGSGSGTDFTLTISSLEPEDVAVYYCQQPSNWPPFTFGPGTKVDIKR
notes: Expressed in CHO cells and purified by Protein A chromatography; also called ca148-HCB
As for B2, the figures for the binding result (with human TNF; in test [2]) were “binds” and “no binding”, respectively.

(Values after US20140294815A1 (NVIP, published 2014).)
